In article PMC10388305, “Synthesis and Evaluation of a Monomethyl Auristatin E—Integrin αvβ6 Binding Peptide–Drug Conjugate for Tumor Targeted Drug Delivery” (Journal of Medicinal Chemistry, 2023):
Read-outs that look alike come from different tables or passages of the source.

Experiment: Biodistribution, BxPC-3 pancreatic xenograft tumor mouse model
Type: in vivo, mice
Conditions: female, athymic nude, iv, total radioactivity, γ-counter, mean ± SD; for tissue uptake at 4 h / tissue uptake at 24 h / tissue uptake at 48 h: i.v.
Procedure: All animal procedures conformed to the Animal Welfare Act and were approved by the University of California Davis Institutional Animal Care and Use Committee. All mice used for in vivo work were female athymic nude mice (6–8 weeks old) purchased from Charles River Laboratories (Wilmington, MA). For PET imaging and biodistribution studies, female athymic nude mice (6–8 weeks old) were injected subcutaneously with 3 × 10^6 DX3puro and 3 × 10^6 DX3puroβ6 cells in serum free DMEM on the right and left flank, respectively, or with 5 × 10^6 BxPC-3 cells in serum free RPMI 1640/Matrigel (1/1 v/v). Studies commenced once tumors reached a maximum diameter of ∼0.5 cm, approximately 3 weeks after inoculation. Food and water were available ad libitum. [^64Cu]PDC-1 was formulated in isotonic 0.9% saline to pH = 7.2 and administered intravenously (i.v.) via a catheter into the tail vein.
Aliquots of the formulated [^64Cu]PDC-1 in isotonic 0.9% saline (4.81–5.74 MBq, 1.7–2.1 μg, 0.26–0.31 nmol, 100 μL, pH 7.2) were injected i.v. as described above. Following the conscious uptake period, the mice were anesthetized (5% isoflurane), euthanized, and dissected (n ≥ 3/model/time point [4, 24, and 48 h]; the 48 h time point also included the imaging animals sacrificed after the PET scans). Tissues were collected, washed, weighed, and radioactivity measured in a γ-counter. Calibrated, decay-corrected radioactivity was expressed as the percentage of injected dose per gram of tissue (% ID/g). Data are reported as mean ± SD. […] For in vivo blocking studies, DOTA-2 (50 mg/kg, 205 nmol, 1.4 mg in 100 μL 0.9% saline) was injected i.v. into two animals/tumor model 10 min prior to [^64Cu]PDC-1. The animals were sacrificed after 4 h, tissues collected, washed, weighed, and radioactivity measured in a γ-counter.
Biodistribution data of [64Cu]PDC-1 in BxPC-3 tumor model.
Table S4. Biodistribution of [ 64Cu]PDC-1 in mice bearing a BxPC-3 xenograft tumor. Tissue uptake is
expressed as the mean of the percentage of injected dose per gram of tissue ± standard deviation (n = 4/
time point; n = 6 at 48 h); an = 3, bn = 5.

CC[C@H](C)[C@@H]([C@@H](CC(=O)N1CCC[C@H]1[C@H](OC)[C@@H](C)C(=O)N[C@H](C)[C@@H](O)c1ccccc1)OC)N(C)C(=O)[C@@H](NC(=O)[C@H](C(C)C)N(C)C(=O)OCc1ccc(NC(=O)[C@H](CCCNC(N)=O)NC(=O)[C@@H](NC(=O)CCOCCOCCNC(=O)CCN2C(=O)CC(SC[C@H](NC(=O)CN3CCN(CC(=O)O)CCN(CC(=O)O)CCN(CC(=O)O)CC3)C(=O)NCCOCCOCCOCCOCCOCCOCCOCCOCCOCCOCCOCCOCCOCCOCCOCCOCCOCCOCCOCCOCCOCCOCCOCCOCCOCCOCCOCCOCCC(=O)N[C@@H](CC(N)=O)C(=O)N[C@@H](C)C(=O)N[C@H](C(=O)N3CCC[C@H]3C(=O)N[C@@H](CC(N)=O)C(=O)N[C@@H](CC(C)C)C(=O)N[C@@H](CCCNC(=N)N)C(=O)NCC(=O)N[C@@H](CC(=O)O)C(=O)N[C@@H](CC(C)C)C(=O)N[C@@H](CCC(N)=O)C(=O)N[C@H](C(=O)N[C@@H](CC(C)C)C(=O)N[C@@H](C)C(=O)N[C@@H](CCC(N)=O)C(=O)N[C@@H](CCCNC(=N)N)C(=O)N[C@H](C(=O)N[C@@H](C)C(=O)N[C@@H](CCCNC(=N)N)C(=O)N[C@H](C(=O)NCCOCCOCCOCCOCCOCCOCCOCCOCCOCCOCCOCCOCCOCCOCCOCCOCCOCCOCCOCCOCCOCCOCCOCCOCCOCCOCCOCCOCCC(N)=O)[C@@H](C)O)C(C)C)C(C)C)C(C)C)C2=O)C(C)C)cc1)C(C)C (stereo partly drawn) [[^64Cu]PDC-1, metal not drawn]
tissue uptake at 4 h (BxPC-3 (αvβ6 +) tumor, 4 h p.i., n = 3, read-out: BxPC-3 (αvβ6 +) tumor uptake): 4.61 ± 1.44 %ID/g | tissue uptake at 24 h (BxPC-3 (αvβ6 +) tumor, 24 h p.i., n = 4, read-out: BxPC-3 (αvβ6 +) tumor uptake): 3.73 ± 0.44 %ID/g | tissue uptake at 48 h (BxPC-3 (αvβ6 +) tumor, 48 h p.i., n = 6, read-out: BxPC-3 (αvβ6 +) tumor uptake): 2.93 ± 0.8 %ID/g | tissue uptake at 4 h (bladder, 4 h p.i., n = 4, read-out: Bladder uptake): 2.06 ± 0.2 %ID/g | tissue uptake at 24 h (bladder, 24 h p.i., n = 4, read-out: Bladder uptake): 1.84 ± 0.45 %ID/g | tissue uptake at 48 h (bladder, 48 h p.i., n = 6, read-out: Bladder uptake): 1.28 ± 0.46 %ID/g | tissue uptake at 4 h (blood, 4 h p.i., n = 4, read-out: Blood uptake): 0.13 ± 0.02 %ID/g | tissue uptake at 24 h (blood, 24 h p.i., n = 4, read-out: Blood uptake): 0.31 ± 0.04 %ID/g | tissue uptake at 48 h (blood, 48 h p.i., n = 6, read-out: Blood uptake): 0.28 ± 0.04 %ID/g | tissue uptake at 4 h (bone, 4 h p.i., n = 4, read-out: Bone uptake): 0.36 ± 0.1 %ID/g | tissue uptake at 24 h (bone, 24 h p.i., n = 4, read-out: Bone uptake): 0.43 ± 0.03 %ID/g | tissue uptake at 48 h (bone, 48 h p.i., n = 6, read-out: Bone uptake): 0.23 ± 0.11 %ID/g | tissue uptake at 4 h (brain, 4 h p.i., n = 4, read-out: Brain uptake): 0.04 %ID/g | tissue uptake at 24 h (brain, 24 h p.i., n = 4, read-out: Brain uptake): 0.08 ± 0.01 %ID/g | tissue uptake at 48 h (brain, 48 h p.i., n = 6, read-out: Brain uptake): 0.08 ± 0.03 %ID/g | tissue uptake at 4 h (gall bladder, 4 h p.i., n = 4, read-out: Gall bladder uptake): 3.99 ± 1.49 %ID/g | tissue uptake at 24 h (gall bladder, 24 h p.i., n = 4, read-out: Gall bladder uptake): 2.88 ± 1.31 %ID/g | tissue uptake at 48 h (gall bladder, 48 h p.i., n = 6, read-out: Gall bladder uptake): 1.46 ± 1.09 %ID/g | tissue uptake at 4 h (heart, 4 h p.i., n = 4, read-out: Heart uptake): 0.79 ± 0.11 %ID/g | tissue uptake at 24 h (heart, 24 h p.i., n = 4, read-out: Heart uptake): 0.89 ± 0.13 %ID/g | tissue uptake at 48 h (heart, 48 h p.i., n = 6, read-out: Heart uptake): 0.79 ± 0.07 %ID/g | tissue uptake at 4 h (kidney, 4 h p.i., n = 4, read-out: Kidney uptake): 50.4 ± 3.08 %ID/g | tissue uptake at 24 h (kidney, 24 h p.i., n = 4, read-out: Kidney uptake): 41.6 ± 11.8 %ID/g | tissue uptake at 48 h (kidney, 48 h p.i., n = 6, read-out: Kidney uptake): 21.5 ± 7.01 %ID/g | tissue uptake at 4 h (large intestines, 4 h p.i., n = 4, read-out: Lg. Intestines uptake): 5.49 ± 0.47 %ID/g | tissue uptake at 24 h (large intestines, 24 h p.i., n = 4, read-out: Lg. Intestines uptake): 5.21 ± 0.82 %ID/g | tissue uptake at 48 h (large intestines, 48 h p.i., n = 6, read-out: Lg. Intestines uptake): 2.78 ± 1.08 %ID/g | tissue uptake at 4 h (liver, 4 h p.i., n = 4, read-out: Liver uptake): 1.51 ± 0.29 %ID/g | tissue uptake at 24 h (liver, 24 h p.i., n = 4, read-out: Liver uptake): 1.95 ± 0.33 %ID/g | tissue uptake at 48 h (liver, 48 h p.i., n = 6, read-out: Liver uptake): 1.8 ± 0.3 %ID/g | tissue uptake at 4 h (lung, 4 h p.i., n = 4, read-out: Lung uptake): 2.44 ± 0.3 %ID/g | tissue uptake at 24 h (lung, 24 h p.i., n = 4, read-out: Lung uptake): 2.3 ± 0.04 %ID/g | tissue uptake at 48 h (lung, 48 h p.i., n = 6, read-out: Lung uptake): 1.67 ± 0.42 %ID/g | tissue uptake at 4 h (muscle, 4 h p.i., n = 4, read-out: Muscle uptake): 0.8 ± 0.09 %ID/g | tissue uptake at 24 h (muscle, 24 h p.i., n = 4, read-out: Muscle uptake): 0.68 ± 0.06 %ID/g | tissue uptake at 48 h (muscle, 48 h p.i., n = 6, read-out: Muscle uptake): 0.44 ± 0.09 %ID/g | tissue uptake at 4 h (pancreas, 4 h p.i., n = 4, read-out: Pancreas uptake): 0.32 ± 0.09 %ID/g | tissue uptake at 24 h (pancreas, 24 h p.i., n = 4, read-out: Pancreas uptake): 0.46 ± 0.04 %ID/g | tissue uptake at 48 h (pancreas, 48 h p.i., n = 6, read-out: Pancreas uptake): 0.47 ± 0.06 %ID/g | tissue uptake at 4 h (skin, 4 h p.i., n = 4, read-out: Skin uptake): 1.92 ± 0.5 %ID/g | tissue uptake at 24 h (skin, 24 h p.i., n = 4, read-out: Skin uptake): 1.41 ± 0.25 %ID/g | tissue uptake at 48 h (skin, 48 h p.i., n = 6, read-out: Skin uptake): 0.79 ± 0.19 %ID/g | tissue uptake at 4 h (small intestines, 4 h p.i., n = 4, read-out: Sm. Intestines uptake): 3.98 ± 0.54 %ID/g | tissue uptake at 24 h (small intestines, 24 h p.i., n = 4, read-out: Sm. Intestines uptake): 2.85 ± 0.31 %ID/g | tissue uptake at 48 h (small intestines, 48 h p.i., n = 6, read-out: Sm. Intestines uptake): 1.5 ± 0.23 %ID/g | tissue uptake at 4 h (spleen, 4 h p.i., n = 4, read-out: Spleen uptake): 0.19 ± 0.02 %ID/g | tissue uptake at 24 h (spleen, 24 h p.i., n = 4, read-out: Spleen uptake): 0.52 ± 0.09 %ID/g | tissue uptake at 48 h (spleen, 48 h p.i., n = 6, read-out: Spleen uptake): 0.43 ± 0.08 %ID/g | tissue uptake at 4 h (stomach, 4 h p.i., n = 4, read-out: Stomach uptake): 8.73 ± 0.66 %ID/g | tissue uptake at 24 h (stomach, 24 h p.i., n = 4, read-out: Stomach uptake): 5.94 ± 0.9 %ID/g | tissue uptake at 48 h (stomach, 48 h p.i., n = 6, read-out: Stomach uptake): 2.78 ± 0.79 %ID/g | excreta dose per gram or mL at 4 h (urine, 4 h p.i., n = 4): 15.3 ± 1.2 %ID/g | excreta dose per gram or mL at 24 h (urine, 24 h p.i., n = 4): 4.81 ± 0.84 %ID/g | excreta dose per gram or mL at 48 h (urine, 48 h p.i., n = 5): 2.04 ± 0.97 %ID/g
